Data taken from the DeepSol protein solubility set.

Assay: soluble on expression in E. coli; label from the status in PepcDB or PDB records

MGSDKIHHHHHHMNFQRDFNDLLNALLTDWRNQFPDADLSQGSLIYMKSACLASALWGLYKYQEWISKQIFPDTAETKYLEHHAWVRGLSRRSGETDEELLARLLEYIRRPPAGGNKYDYQKWALEIDNVANAWCIPLSQGPGTVDVIIAADETVTGSEIPSSHALTGTTTAITENKLVDGAADFMATGDGGPVRIGDIAVNDDTGGQAVITAVDNATQLTLDTDIFSSIGQSYTLKSLTAQVGEYIDDVRPVTVSIVRILPPAVTLQDVTMTVTGTVNKEAIASAITSLLRSLVPGQTLYLSRLIAIAIQEGATNASISAPAADMSPGPYEMLRPGTITVS
soluble on expression in E. coli: not soluble

MSLSFFFQSATVSDGELTGADLKDCISNNSLSSNASLPSVQSCRRLRERRVASWAVSFERLLQDPVGVRYFSDFLRKEFSEENILFWQACECFSHVPAHDKKELSYRAREIFSKFLCSKATTPVNIDSQAQLADDILNAPHPDMFKEQQLQIFNLMKFDSYTRFLKSQLYQECVLAEVEGRTLPDSQQVPSSPASKHSISSDHSNVSTPKKLSGKSKSGRSLNEDVGEEDSEKKRRGAFFSWSRSRSTGRSQKKKDHGDHAHDAPHANGGLCRRESQGSVSSAGSLDLSEACRTSALEKDKAAKHCCVHLPDGTSCVVAVKSGFSIKEILSGLCERHGINGAAVDLFLVGGDKPLVLHQDSSILATRDLRLEKRTLFRLDLVPINRSVGLKAKPTKPVTEVLRPVVAKYGLDLGSLLVRLSGEKEPLDLGAPISSLDGQRVILEERDPSRGKVSTDKQKGAPVKQNSAVNSSPRNHLAMGEERTLGKSNSIKIRGENGKSARDPRLSKREESIAKIGKKEYQKINLDEAEEFFELISKAQSNRADDQRGLLRKEDLVLPEFLRLPAGSSELALSSPPPVKGYSKRAVTGHGQEGAAQTEESYSDSPATSPASAQSPCSAYSPGSAHSPGSAHSTPGPPGTTQPGEKPTKPSCVSMVQEGTTQAWRRLSPGMEAGGIQTVEDEQVADLTLMGEGDISSPNSTLLPPPPTPQDTPGPPRPGTSRF
soluble on expression in E. coli: soluble

MNKSHLGTADNPQEVVTAHDIGRLVDVVNVGKGFLRYVGPIHGKDGMFCGIELLEPNGKHDGTFQGVSYFIATPYHGIFAPIFRVTLDAEELPKPPPPNPSNRLSRSALPALQLRNPLTQERKPEEDVMSTSVYVSSSTKPIAIPTKQCRPPETDPMQMSMFSDMMDGSMFSNGSWSDIADSMITSNCTFTVRKGLPIDDDGDLMSVPMVQSVFNIDREALRREEQLQSSIVLGESRIGVEHLPIIEDENELETPLVETRTMPLPNDLNANFSNKNSTTTFVEPETPKVEIRENGNLDNSIETPPQQSPSGSSMVSHESDSSSKKDDTKSDKSPTKKSQKMEEKPVVKKKEEPAAPPPPPKFPVKQKAPSKHQLMMEQLKASIEAEKTKPKKEIKSRVSLLPPPAPKAPQKENKEGGEMTETPRRTITKTPLKTVNAKAKTSPTPPVERQKKERKPLYVAPPAKERVEKEKKIPSKPVVSPPTTAEKKPVVSSIPSTSSASKGPFPTSSFAGGKLQGPRKTSSSSTTTSAKKQKNPPIDEKEKLSRLQHSTHAFEATLIVMNRINEDNERKLGNISEQYEKKVSELGDLKKMLDEARKKFEEDVEQMKNSNQQVIRNHANAVESLQKTHETQIAEKNKEFERNFEEERARREAEVCAMNNRHQKVVACLDEKISEAEKQCEQLNVDKKVLQAALANDCDHRNQMLTKEISSLQTALEMKSAEMKELRQKNQNLSLQVDEIPLKELEISKWKHKSNEYKQMLDQKINGEKILVQQIEDLRRKQIHDEEEKEAMKRSFDLMQFKYENGDDPNVTSVMSAPMESRFSTPTKVQFRSRSSASGSRPISMATSNGGDQRLSTSSHHDDSMNRSTISMYTSHIRLPENHADDVIYAPDEIISSRSGSISQRLAISIENDGEPTIKSESSRIGNTSDSGIGLVM
soluble on expression in E. coli: not soluble

MGSDKIHHHHHHSCLDDDDSSSDSLVISTINLISPDSKDFYFTLDDGKTMFPSNGNGWISDKNKDGQRAFVIFKELEEPVKGYDYNIQVREIKEILTKEIVTMGEGENTEEKIGDDKINSTYMWITQDKKYLTIEFQYYGTHSEDKKHFLNLVINNKEAEPAADDANDEYIDLEFRHNDEGDTADRLGEGYISFKLDKIQDQMKGKKGLRIRVKTLYNGEKFYEVKFPSSN
soluble on expression in E. coli: not soluble

MAHHHHHHMDLIQWPLPYQDELLNFYIFNDSKFVGGQNRWNLFKKKVMHHNIHVISNCYCQISLLRLSQLLNASVDDSESFLSELVSNKILNAKIDRLHGIIKFGQKKTPEVLLNNWSSQIHQILNLLEESSHLIQKERMLHEAKLKRMQLESKNMSL
soluble on expression in E. coli: not soluble

VDLNALADLPLTYPEVGATATGRLPAGYNHLDVSTQIGTGRQRFEQAADAVMHWGMQRNAGLRVRASSETAVVSAVVLVGIAFLRAPCRVVYVIDEPDVRGFGYGTLPGHPVSGEERFAVRCDPMTSVVFAEVLSFSRPATWASKAAGPLGAVTQRFIAQRYLRAV
soluble on expression in E. coli: not soluble

MSLDSIKVKNEYEKLTGSDSVVRRGMFNVYQKKNDYYFEIPSTLLERDMLVVNKLQRVPAELNEAGVNRGTNYENQMIRFELDKSANKLLIRQSRPLPISPSEDAISQSVKDNYISPLIAGFKVEAYNNDSTSILIKVNDIYDGTETSINNVFTNINLGTSAIKNLSRILSIKSFDNNVVATSELTTRVTEGTTTIYVTVEVSSSILLLPEVPMTGRLDNPRVGYFTNPLTNFSDGQQRVNKKQFITRWRLEPRPEDRAAYLRGELVEPRKPIVFYIENSTPYRWRKYIKQGIEDWQVAFERAGFKNAIIAKDITEDMEVDMDDVNYSVLTYAASTKANAMGPSILDPRSGEILEADIMWWHNVLSMLQEWITVQTGVVRPEARGVALPDSLMGDAMRFVACHEVGHSLGLRHNMMGSWAFPTDSLRSKTFTDRMNSTSSSIMDYARFNYVAQPGDGIKALSPHIGPYDMFAIEYGYRWYGKQTPEEEKELLQDFLAKHTDRLYKYSEAQDPRDAVDPRAQNEDLGDDPIRSSQYGIANLKCIVPQIIQWTTTGEKGQTYEEASRLYYAVINQWNNYLYHVMANIGGIYIENTTVGDGEKTYTFVEKEKQQAALRFLLDEVLCYPKWLFDPEIAQYTYLLKNTPLGVVENAPTQVLKNAQAYVFWDLLSNNRLMRMLENESVNGKKAFTAVELMDGLHKSIFAVTERGGLPDVMTRNLQKGFVDALITAAAESEGVKVNKKLIDNHFLFDLQTPICSCDDHVHRSAHTDRMGARRELNFYGSQINRISDAISVKRGELLRIKDLLQSRLGTSDVATKYHYKDLILRINTALGISKEGHHHHHH
soluble on expression in E. coli: soluble

MTQQEYQNRRQALLAKMAPGSAAIIFAAPEATRSADSEYPYRQNSDFSYLTGFNEPEAVLILVKSDETHNHSVLFNRIRDLTAEIWFGRRLGQEAAPTKLAVDRALPFDEINEQLYLLLNRLDVIYHAQGQYAYADNIVFAALEKLRHGFRKNLRAPATLTDWRPWLHEMRLFKSAEEIAVLRRAGEISALAHTRAMEKCRPGMFEYQLEGEILHEFTRHGARYPAYNTIVGGGENGCILHYTENECELRDGDLVLIDAGCEYRGYAGDITRTFPVNGKFTPAQRAVYDIVLAAINKSLTLFRPGTSIREVTEEVVRIMVVGLVELGILKGDIEQLIAEQAHRPFFMHGLSHWLGMDVHDVGDYGSSDRGRILEPGMVLTVEPGLYIAPDADVPPQYRGIGIRIEDDIVITATGNENLTASVVKDPDDIEALMALNH
soluble on expression in E. coli: not soluble

MIEVAEIIAREIRRGKIVEIGVGFYLEVAKRLRESGIDILVVDINEKAINYARKQGIKGVVDDIFNPTLGIYKDAKAIYSIRPAPEMMKPLLDLARKLKIPLYIVPLTGDRTPNGMKLINYKGIPIYKWEP
soluble on expression in E. coli: soluble

MPVIPKSGRLAAVGVLGRIVDVLMRLSLLIRGAVPGGVAAAAATRYRDRIDTGTTATYYGRVVREGGYVVLQYWFFYAMNDWRSVYGGVNDHEADWEKVTVYLVEEENGEYRPVWVGASSHEYLGDDLRRRWDDPELHRDGNHPIIYVGAGSHSHQMLPGDYLIQVDPAFLRGVLRAWRRFTARFLPSSSRLRGIGVPFVDYARGDGVRVGPGGERTWTPVLIDDTTPWVRGYRGLWGRNTRDWFDGERAPSGPRYERLEHHHHHH
soluble on expression in E. coli: soluble

MIQFSINRTLFIHALNTTKRAISTKNAIPILSSIKIEVTSTGVTLTGSNGQISIENTIPVSNENAGLLITSPGAILLEASFFINIISSLPDISINVKEIEQHQVVLTSGKSEITLKGKDVDQYPRLQEVSTENPLILKTKLLKSIIAETAFAASLQESRPILTGVHIVLSNHKDFKAVATDSHRMSQRLITLDNTSADFMVVLPSKSLREFSAVFTDDIETVEVFFSPSQILFRSEHISFYTRLLEGNYPDTDRLLMTEFETEVVFNTQSLRHAMERAFLISNATQNGTVKLEITQNHISAHVNSPEVGKVNEDLDIVSQSGSDLTISFNPTYLIESLKAIKSETVKIHFLSPVRPFTLTPGDEEESFIQLITPVRTN
soluble on expression in E. coli: soluble

MERVSITERPDWRDKATEYGFNFHTMYGEPYWCEDAYYKLTLAQVEKLEDVTAELHQMCLKVVERVIASDELMTKFRIPKHTWGFVRQSWQTQQPSLYSRLDLAWDGIGEPKLLENNADTPTSLYEAAFFQWIWLEDQINAGNLPEGSDQFNSLQEKLIERFAELREQYGFQLLHLTCCRDTVEDRGTIQYLQDCAAEAEIATEFLYIDDIGLGEKGQFTDLQDQVIANLFKLYPWEFMLREMFSTKLEDAGVRWLEPAWKSIISNKALLPLLWEMFPDHPNLLPAYFAEDEHPPMDKYVVKPIFSREGANVSIIENGKTIESVEGPYGEEGMIVQQFYPLPKFGDSYTLIGSWLINDQPAGIGIREDRALITQDLSRFYPHIFVEG
soluble on expression in E. coli: not soluble

MKTSSASKSHYTGQFPQGDLQPKTPIPVGRNSEIPKDAALSAQLKGLRPLDRKPSKMPTSSSDLQAVNKMIAENRSNDVGKGQFLLSTQSLGSAERVDSQNYHSRNESGKAPLFFSEFATEKPSLQSVKSLSQGKQDYYAVRHVGKRGRDLFTDEPIEGENSKLGRLKTSPLLSTQSQGTRAIRAFAATATIDKSRGEYVARLHRHVVEALGDEGGVVHLLRPTRDHYAEDSTLNFFTFCEQTELASSLNSLEAISAKKEDRKPIVFTDHKSLVGLSRTSRTEASPIGRLVQQPYFVTSDLKRGDKVVITDDHIQAGGSMLAMEAAAKEAGVDVLALATLSAHPFSPQLTMSSEVSAFLDETLAAWDPQGKVTERLAAIGMPREKLTNSEAMILIAYAIDPASDSAILRFESIQNNLFKRAHLHNVGIDPDAPDTLEQMQKLSSMQEMAGTDSARHFVDDAKVLEGEHDSLIPILKMKPASP
soluble on expression in E. coli: not soluble

MGSDKIHHHHHHMSQFEQDAHLKQQSDRALSDHELQADHTRQKTHELPAHFDFQQAGKQVLSIERDGLAQLDQYIDDNFTLACKNIFHCKGKVVVMGMGKSGHIGCKIAATFASTGTPAFFVHPGEASHGDLGMVTPHDIVIAISNSGESHEILSLIPVLKRQKVFLICMTSAPESTMGKAADIHLCVHVPQEACPLGLAPTTSTTATLVMGDALAVALLQARGFTAEDFALSHPGGALGRKLLLRVSDIMHSGDEIPHVPHDASLRDALVEITRKNLGMTVICEADMKIQGIFTDGDLRRIFDMNIDLNSARIADVMTAGGIRVAPQTLAVDALNLMQSRHITSVLVAENDRLVGIVHMHDMLRAGVV
soluble on expression in E. coli: not soluble

MGSDKIHHHHHHMGNKIYPIGIQNFESLRLDGYFYIDKTALIYQLVKSGRYYFLSRPRRFGKSLLISTLEAYFQGKKELFQGLAMEKLEKDWTKYPILHIDLNTQKYDSPQSLESKLNRTLVTWEKLYGSEPAEDSLSMRFEGTIQRAYEQTGQRVVILVDEYDKPMLQAIGNKELQNSFRETLKAFYGALKSKDGCIKFAMLTGVTKFGKVSVFSDLNNLDDISMWNEYIELCGISEKEIHKNLETELHEFADVQKMTYDSFCEKLRQYYDGYHFTHNSIGMYNPFSLLNAFKRKEFGSYWFETGTPTYLVELLKRHHYNLERMAHEETNAQVLNSIDSESTSPIPVIYQSGYLTIKGYDEEFGIYHLGFPNKEVEEGFIQFLVPYYTSMNNVESPFEI
soluble on expression in E. coli: not soluble
